For assay [1], the target named is T1, decorin (Bos taurus, UniProt P21793).
T1 construct: Decorin from bovine fetal skin was purified and stored in 4 M guanidine hydrochloride; from tissue; host or cells: decorin from bovine fetal skin; DbpA made in E. coli JM101
In words: Binding of biotin-conjugated decorin to protein-coated microtiter wells. On the set-up: species or system bovine. The conditions noted are these: 0.4 μg protein coated, 0.12 μg/ml biotin-decorin, compared to wild-type DbpA. The protocol:
(§1) Decorin from bovine fetal skin was purified and stored in 4 M guanidine hydrochloride at −80° C. and dialyzed extensively against PBS before use. Decorin was labeled with digoxigenin-3-O-methylcarbonyl-ε-aminocaproic acid-N-hydroxy-succinimide ester (digoxigenin) (Boehringer Mannheim, Indianapolis. Ind.) according to the manufacturer's instructions and stored at −20° C. To label decorin with biotin, 7.5 mg of NHS-LC-Biotin (sulfosuccinimidyl-6-(biotinamido) hexanoate) (Pierce, Rockford, Ill.) was dissolved in 100 μl of dimethyl sulfoxide and combined with 0.5 mg of decorin and 0.5 ml of 0.2 M sodium borate (pH 8.0) in a total reaction volume of 1 ml.
Immulon-1 microtiter plate wells (Dynatech Labs, Chantilly, Va.) were coated with 0.4 μg of DbpA (SEQ ID 1), DbpA mutants and K-mod in 50 μl PBS overnight at 4° C. The wells were washed and then blocked with 200 μl of Super Block (Pierce) for 1 h. After washing, 0.12 μg/ml of biotin-conjugated decorin in 100 μl of Super Block was added to the wells and incubated for 1 h. After washing, 100 μl of a 1:10,000 dilution of alkaline phosphatase (AP)-conjugated streptavidin (1 U/ml) (Boehringer Mannheim) was added and incubated for 1 h. […] The absorbance was determined in a Microplate Reader (Molecular Devices, Menlo Park, Calif.). […]

The target in assay [2] is T1, decorin. Put plainly: Western ligand blot with digoxigenin-labeled decorin. Type of assay: binding, bovine. The conditions noted are these: SDS-PAGE reducing, probed with digoxigenin-labeled decorin. The protocol:
as §1
Proteins (purified DbpA, DbpA site-directed mutants and OspC) were subjected to SDS-PAGE (reducing conditions) and probed with rabbit anti-DbpA polyclonal sera (R625) or with digoxigenin-labeled decorin.
Further, the side chains of lysine residues were chemically modified and the binding properties of the resulting protein examined. […] Both forms of DbpA migrated as two bands, monomers at 20 and 21 kDa and dimers at 40 and 42 kDa for DbpA and chemically modified DbpA (K-mod), respectively. The decorin binding activity of the DbpA and lysine-modified DbpA was examined in a Western ligand blot assay (FIG. 6B).

T1 sequence (P21793 31-360): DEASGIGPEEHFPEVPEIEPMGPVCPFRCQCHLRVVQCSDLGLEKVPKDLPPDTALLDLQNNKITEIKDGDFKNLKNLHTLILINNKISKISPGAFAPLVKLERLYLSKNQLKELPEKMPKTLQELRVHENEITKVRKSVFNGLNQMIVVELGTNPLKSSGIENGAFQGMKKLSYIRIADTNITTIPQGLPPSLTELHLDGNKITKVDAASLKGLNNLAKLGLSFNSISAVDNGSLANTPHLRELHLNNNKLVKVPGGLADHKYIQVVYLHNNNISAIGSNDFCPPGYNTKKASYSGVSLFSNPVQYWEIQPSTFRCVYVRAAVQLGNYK

B1: K-mod: DbpA with lysine residues chemically modified by DL-glyceraldehyde and sodium cyanoborohydride (protein)
chain: ATKIKLESSAKAIVDEIDAIKKKAASMGVNFDAFKDKKTGSGVSENPFILEAKVRATTVAEKFVIAIEEEATKLKETGSSGEFSAMYDLMFEVSKPLQELGIQEMTKTVSMAAEENPPTTAQGVLEIAKKMREKLQRVHKKNQDTLKKKNTEDSTAKS
modifications: left off: small tags and cut ends
notes: DbpA with lysine residues chemically modified by DL-glyceraldehyde and sodium cyanoborohydride
With B1, the “binding of biotin-conjugated decorin to coated microtiter wells” value with decorin [1] was “essentially unable to support the binding of decorin”. Also, in the assay with decorin [2], the “decorin binding in Western ligand blot” value was “loss of decorin binding”.
